The record followed here is patent US20230381316A1 (published 2023).

Assay [1] addresses T1, purified recombinant human PSMA protein (PSMA extracellular domain, baculovirus-insect cell expression) (UniProt Q04609 44-750). Kind of assay: SPR (Biacore). Background: Surface plasmon resonance follows binding to a sensor surface in real time, without labels.
For assay [2], the target named is T1, purified recombinant human PSMA protein …. Briefly: SPR (Biacore); Bivalent fit.
The target in assay [3] is PSMA. Briefly: previously reported; previously reported value.
Assay [4] deals with T1, purified recombinant human PSMA protein …. Briefly: SPR (Biacore); Langmuir fit.

Residue numbers refer to the chain shown, from its start.

T1 sequence (Q04609 44-750): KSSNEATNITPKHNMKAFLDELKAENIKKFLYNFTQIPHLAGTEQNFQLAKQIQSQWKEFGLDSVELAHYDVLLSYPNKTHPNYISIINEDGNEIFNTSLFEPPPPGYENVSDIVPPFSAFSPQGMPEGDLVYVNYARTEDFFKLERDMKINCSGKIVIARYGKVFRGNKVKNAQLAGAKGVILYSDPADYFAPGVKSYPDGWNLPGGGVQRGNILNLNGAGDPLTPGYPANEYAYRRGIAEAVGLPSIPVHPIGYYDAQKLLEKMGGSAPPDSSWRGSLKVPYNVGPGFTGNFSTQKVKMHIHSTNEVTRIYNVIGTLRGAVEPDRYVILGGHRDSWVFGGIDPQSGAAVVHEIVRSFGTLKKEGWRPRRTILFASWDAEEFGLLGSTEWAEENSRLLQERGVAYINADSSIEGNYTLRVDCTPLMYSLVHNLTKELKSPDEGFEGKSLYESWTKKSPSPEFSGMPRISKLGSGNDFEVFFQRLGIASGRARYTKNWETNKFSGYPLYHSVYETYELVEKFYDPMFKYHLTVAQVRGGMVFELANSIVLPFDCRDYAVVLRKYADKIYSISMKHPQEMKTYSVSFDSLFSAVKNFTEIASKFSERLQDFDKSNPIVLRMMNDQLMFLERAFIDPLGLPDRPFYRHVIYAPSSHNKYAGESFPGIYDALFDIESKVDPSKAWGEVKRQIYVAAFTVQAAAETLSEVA

B1: anti-PSMA mouse monoclonal antibody #1377 (antibody, V domains shown)
VH: VQLQQPGAALVRPGASVRLSCKASGYSFTYYWMNWVMQRPGQGLEWIGMIHPSDSETRLSQKFRDKATLTVDKSSSTVYMQLNSPTSDDSAVYYCARDGNFPYYALDYWGQGTSVTVSS
VL: DVVLTQAPLSLPVSLGDQASISCRSSQSLEYSNGNTYLHWYLQKPGQSPELLIYTVSNRFSGVPDRFSGSGSGTDFTLKIHRVEAEDLGVYFCSQSTHVPTFGGGTKLEIKR
Regarding B1, the Kd in assay [1] and in assay [2] was 18.6 nM in each case.

B2: ScFv Fc 445 (antibody)
chain: VQLQQPGAALVRPGASVRLSCKASGYSFTYYWMNWVMQRPGQGLEWIGMIHPSDSETRLSQKFRDKATLTVDKSSSTVYMQLNSPTSDDSAVYYCARDGNFPYYALDYWGQGTSVTVSSGGGGSGGGGSGGGGSDVVLTQAPLSLPVSLGDQASISCRSSQSLEYSNGNTYLHWYLQKPGQSPELLIYTVSNRFSGVPDRFSGSGSGTDFTLKIHRVEAEDLGVYFCSQSTHVPTFGGGTKLEIKR
B2: the Kd in assay [2] was 2.55 nM.

B3: ScFv Fc 446 (antibody, V domains shown)
VH: VKLQESGPGLVAPSQSLSITCTVSGFSLTDYGVSWIRQPPGKGLEWLGVIWSDGNTYYNSPLKSRLSINKDNSKSQVFLKMNSLQTDDSAMYYCARHKVYTMDYWGQGTSVTVSS
VL: TVLTQSPAIMSASPGEKVTMTCRASSSVSSSYLHWYQQKSSASPKLWIYRTSNLASGVPARFSGSGSGTSYSLTISSLEAEDAATYYCQQYSGYPLTFGAGTKLELKR
For B3, the Kd in assay [2] turned out to be 1160 nM.

B4: anti-PSMA mouse monoclonal antibody #1207 (antibody, V domains shown)
VH: VKLQQSGPGLVKPSQSLSLTCAVTGYSITSDYAWNWIRKFPGNKLEWMGYISYSGRTTYNPSLESRISITRDTSKNQFFLQLNSVTTEDTATYYCARCYYGSSSRWYGMDYWGRGTSVAVSS
VL: B3 VL with T1I, E16V, S29D, S41G, K45Q, L46V, R50S, L78V, A100G, L106I
As to B4, the Kd in assay [1] and in assay [2] was 8.13 nM in each case.

B5: anti-PSMA mouse monoclonal antibody #1366 (antibody, V domains shown)
VH: B3 VH
VL: B3 VL
On to B5, for which the Kd in assay [1] and in assay [2] was 295 nM throughout.

B6: J591 (antibody, V domains shown)
VH: EVQLQQSGPELVKPGTSVRISCKTSGYTFTEYTIHWVKQSHGKSLEWIGNINPNNGGTTYNQKFEDKATLTVDKSSSTAYMELRSLTSEDSAVYYCAAGWNFDYWGQGTTLTVSS
VL: DIVMTQSHKFMSTSVGDRVSIICKASQDVGTAVDWYQQKPGQSPKLLIYWASTRHTGVPDRFTGSGSGTDFTLTITNVQSEDLADYFCQQYNSYPLTFGAGTMLDLK
B6 came in with a Kd in assay [3] of 1.83 nM.

B7: ScFv Fc 444 (antibody, V domains shown)
VH: VQLQQSGPELEKPGASVKMSCKASGYSFTGYNVNWVRQNNGKSLEWIGNIDPLHGGTTYNQKFKAKATLTVDRSSSTAYLQLKNLTSEDSAVYYCARSSRFDYWGQGTTLTVSS
VL: DIVMTQSHKFMSTSVGDRVNITCKASQDVGTAVAWYQQKPGQSPKLLIYWASTRHTGVPDRFTGSGSGTDFTLTISNVQSEDLADYFCHQFTSYPFTFGSGTSLEMKR
For B7, the Kd in assay [2] amounted to 4.35 nM.

B8: anti-PSMA mouse monoclonal antibody #219 (antibody, V domains shown)
VH: B7 VH
VL: B7 VL
Consider B8, for which the Kd in assay [1] and in assay [4] was 2.64 nM throughout.

B9: anti-PSMA mouse monoclonal antibody #1352 (antibody, V domains shown)
VH: B7 VH with Q2K, M19I, R37K, N39S, L53Y, K64E, R73K, L80M, N84S
VL: B7 VL with L46F, F91Y, S103K
In the case of B9, the Kd in assay [1] and in assay [2] was 1.99 nM each time.
